B1: STK38L (parent)
chain: NWKETLVFPPEVPISEKAKDLILR
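Further: lentivirally expressed fusions sorted by FACS into six bins by GFP to DsRed ratio, PSI derived from sequencing read proportions per bin multiplied by bin number.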

In the data set the parent is B1. The data set can be described thus: protein stability index of a GFP-peptide fusion (GPS, HEK-293T) (PSI 1-6); higher = more stable. The following applies: c terminus: a fixed tail appended.
Take NWKETLVMPPEVPISEKAKDLILR [F8M]: the protein stability index was determined as 3.78. Regarding NWKETLVCPPEVPISEKAKDLILR [F8C], the protein stability index is 4.02. As for NWKETLVSPPEVPISEKAKDLILR [F8S], the protein stability index worked out at 3.73. For the variant NWKETLVIPPEVPISEKAKDLILR [F8I], the protein stability index was 3.43.

Turning to NWKETLVAPPEVPISEKAKDLILR [F8A], the protein stability index was found to be 4.08. To NWKETLVQPPEVPISEKAKDLILR [F8Q] belongs 3.53. Take NWKETLVNPPEVPISEKAKDLILR [F8N]: the protein stability index is 3.1.

For NWKETLVEPPEVPISEKAKDLILR [F8E], the protein stability index was 3.98.

With NWKETLVDPPEVPISEKAKDLILR [F8D], the protein stability index is 3.9.

For the variant NWKETLVHPPEVPISEKAKDLILR [F8H], the protein stability index is 3.33.

For NWKETLVKPPEVPISEKAKDLILR [F8K], the protein stability index was 4.21. Take NWKETLVGPPEVPISEKAKDLILR [F8G]: the protein stability index was found to be 3.02. For NWKETLVLPPEVPISEKAKDLILR [F8L], the protein stability index turned out to be 2.94.

With NWKENLVFPPEVPISEKAKDLILR [T5N], the protein stability index stood at 3.36. To NWKEMLVFPPEVPISEKAKDLILR [T5M] belongs 2.75. On to NWKEELVFPPEVPISEKAKDLILR [T5E], for which the protein stability index amounted to 2.36.

NWKEVLVFPPEVPISEKAKDLILR [T5V]: the protein stability index came out at 2.61. Take NWKEALVFPPEVPISEKAKDLILR [T5A]: the protein stability index came out at 3.27.

Take NWKEKLVFPPEVPISEKAKDLILR [T5K]: the protein stability index turned out to be 2.48. With NWKEILVFPPEVPISEKAKDLILR [T5I], the protein stability index was 2.53.

With NWKEHLVFPPEVPISEKAKDLILR [T5H], the protein stability index stood at 3.2. Turning to NWKEDLVFPPEVPISEKAKDLILR [T5D], the protein stability index worked out at 3.65.

As to NWKELLVFPPEVPISEKAKDLILR [T5L], the protein stability index worked out at 2.09. To NWKERLVFPPEVPISEKAKDLILR [T5R] belongs 3.12; to NWKEPLVFPPEVPISEKAKDLILR [T5P], 3.42. To NWKESLVFPPEVPISEKAKDLILR [T5S] belongs 2.87. Regarding NWKECLVFPPEVPISEKAKDLILR [T5C], the protein stability index stood at 2.44. On to NWKEQLVFPPEVPISEKAKDLILR [T5Q], for which the protein stability index is 4.08. In the case of NWKEYLVFPPEVPISEKAKDLILR [T5Y], the protein stability index came out at 2.62.

As to NWKEWLVFPPEVPISEKAKDLILR [T5W], the protein stability index worked out at 2.05.

As to NWKETFVFPPEVPISEKAKDLILR [L6F], the protein stability index was found to be 3.31. As to NWKETQVFPPEVPISEKAKDLILR [L6Q], the protein stability index amounted to 3.87.

In the case of NWKETTVFPPEVPISEKAKDLILR [L6T], the protein stability index amounted to 3.46. For NWKETGVFPPEVPISEKAKDLILR [L6G], the protein stability index is 1.5. Consider NWKETAVFPPEVPISEKAKDLILR [L6A], for which the protein stability index is 4.04.

For NWKETHVFPPEVPISEKAKDLILR [L6H], the protein stability index was determined as 2.61. Consider NWKETRVFPPEVPISEKAKDLILR [L6R], for which the protein stability index came out at 2.83. NWKETPVFPPEVPISEKAKDLILR [L6P]: the protein stability index was found to be 4.16. On to NWKETMVFPPEVPISEKAKDLILR [L6M], for which the protein stability index came to 3.31.

NWKETNVFPPEVPISEKAKDLILR [L6N]: the protein stability index turned out to be 3.55. As to NWKETEVFPPEVPISEKAKDLILR [L6E], the protein stability index turned out to be 3.66. Turning to NWKETSVFPPEVPISEKAKDLILR [L6S], the protein stability index came out at 3.62. In the case of NWKETYVFPPEVPISEKAKDLILR [L6Y], the protein stability index stood at 3.39.

Take NWKETWVFPPEVPISEKAKDLILR [L6W]: the protein stability index is 2.74.

On to NWKETIVFPPEVPISEKAKDLILR [L6I], for which the protein stability index came to 2.86.

Regarding NWKETDVFPPEVPISEKAKDLILR [L6D], the protein stability index was found to be 3.93. As to NWKETCVFPPEVPISEKAKDLILR [L6C], the protein stability index worked out at 3. To NWKETVVFPPEVPISEKAKDLILR [L6V] belongs 3.15. As for NWKETKVFPPEVPISEKAKDLILR [L6K], the protein stability index is 3.53.

As to NWKETLHFPPEVPISEKAKDLILR [V7H], the protein stability index was 3.27.

Consider NWKETLSFPPEVPISEKAKDLILR [V7S], for which the protein stability index came out at 2.54. For NWKETLNFPPEVPISEKAKDLILR [V7N], the protein stability index came out at 3.63.

Consider NWKETLQFPPEVPISEKAKDLILR [V7Q], for which the protein stability index came out at 3.95. Take NWKETLIFPPEVPISEKAKDLILR [V7I]: the protein stability index is 3.09. NWKETLPFPPEVPISEKAKDLILR [V7P]: the protein stability index is 4.19. As to NWKETLDFPPEVPISEKAKDLILR [V7D], the protein stability index stood at 3.81. In the case of NWKETLFFPPEVPISEKAKDLILR [V7F], the protein stability index is 2.63. To NWKETLWFPPEVPISEKAKDLILR [V7W] belongs 4.68; to NWKETLTFPPEVPISEKAKDLILR [V7T], 3.33. On to NWKETLMFPPEVPISEKAKDLILR [V7M], for which the protein stability index is 2.94. As to NWKETLKFPPEVPISEKAKDLILR [V7K], the protein stability index was 2.95. In the case of NWKETLLFPPEVPISEKAKDLILR [V7L], the protein stability index was 3.65.

Regarding NWKETLYFPPEVPISEKAKDLILR [V7Y], the protein stability index stood at 2.9. With NWKETLEFPPEVPISEKAKDLILR [V7E], the protein stability index was found to be 3.53. As to NWKETLCFPPEVPISEKAKDLILR [V7C], the protein stability index was 3.35.

With NWKETLAFPPEVPISEKAKDLILR [V7A], the protein stability index came out at 3.52.

Consider NWKETLGFPPEVPISEKAKDLILR [V7G], for which the protein stability index came out at 4.56. To NWKETLRFPPEVPISEKAKDLILR [V7R] belongs 2.72; to NWWETLVFPPEVPISEKAKDLILR [K3W], 2.07.

NWTETLVFPPEVPISEKAKDLILR [K3T]: the protein stability index was determined as 3.23. Take NWYETLVFPPEVPISEKAKDLILR [K3Y]: the protein stability index came out at 2.18. To NWPETLVFPPEVPISEKAKDLILR [K3P] belongs 3.71. For NWRETLVFPPEVPISEKAKDLILR [K3R], the protein stability index turned out to be 3.12. In the case of NWSETLVFPPEVPISEKAKDLILR [K3S], the protein stability index amounted to 3.17. For NWQETLVFPPEVPISEKAKDLILR [K3Q], the protein stability index amounted to 3.77. For NWVETLVFPPEVPISEKAKDLILR [K3V], the protein stability index came to 2.53. Take NWKITLVFPPEVPISEKAKDLILR [E4I]: the protein stability index was determined as 1.69. Turning to NWKCTLVFPPEVPISEKAKDLILR [E4C], the protein stability index was 2.16.

Turning to NWKFTLVFPPEVPISEKAKDLILR [E4F], the protein stability index turned out to be 2.29.

For the variant NWKVTLVFPPEVPISEKAKDLILR [E4V], the protein stability index came out at 2.38.

For NWKKTLVFPPEVPISEKAKDLILR [E4K], the protein stability index stood at 2.47.

For the variant NWKSTLVFPPEVPISEKAKDLILR [E4S], the protein stability index was determined as 2.32. To NWKNTLVFPPEVPISEKAKDLILR [E4N] belongs 1.76; to NWKPTLVFPPEVPISEKAKDLILR [E4P], 2.85; to NWKATLVFPPEVPISEKAKDLILR [E4A], 2.1. For NWKRTLVFPPEVPISEKAKDLILR [E4R], the protein stability index is 1.97. In the case of NWKQTLVFPPEVPISEKAKDLILR [E4Q], the protein stability index was found to be 2.62. For the variant NWKMTLVFPPEVPISEKAKDLILR [E4M], the protein stability index was 2.58. For the variant NWKGTLVFPPEVPISEKAKDLILR [E4G], the protein stability index stood at 2.31. Take NWKDTLVFPPEVPISEKAKDLILR [E4D]: the protein stability index was 3.01.

For the variant NWKTTLVFPPEVPISEKAKDLILR [E4T], the protein stability index was 2.57. In the case of NWKWTLVFPPEVPISEKAKDLILR [E4W], the protein stability index was 1.78. Take NWKYTLVFPPEVPISEKAKDLILR [E4Y]: the protein stability index amounted to 1.32.

Regarding NWKHTLVFPPEVPISEKAKDLILR [E4H], the protein stability index worked out at 2.82.

For the origin of these results see the supplement of paper PMC10567573.
